{"source": "paper PMC11187625", "about": "“New Labeled PET Analogues Enable the Functional Screening and Characterization of PET-Degrading Enzymes” (ACS Sustainable Chemistry & Engineering, 2024)", "experiment_in_all_cases": "fluorescence, 4-mU release", "details_in_all_cases": "0.1 M phosphate pH 7, 30 °C, 5% DMSO", "key": {"[1]": {"substrate": "CCOCCOC(=O)c1ccc(C(=O)Oc2ccc3c(C)cc(=O)oc3c2)cc1", "format": "biochemical, unidentified prokaryotic organism", "from_the_text": "(§1) fluorescence, 4-mU release on LCC^ICCG (leaf-branch compost cutinase ICCG variant)"}, "[2]": {"substrate": "COC(=O)c1ccc(C(=O)OCCOC(=O)c2ccc(C(=O)Oc3ccc4c(C)cc(=O)oc4c3)cc2)cc1", "format": "biochemical, unidentified prokaryotic organism", "from_the_text": "as §1"}, "[3]": {"substrate": "COC(=O)c1ccc(C(=O)Oc2ccc3c(C)cc(=O)oc3c2)cc1", "format": "biochemical, unidentified prokaryotic organism", "from_the_text": "as §1"}, "[4]": {"substrate": "CCOCCOC(=O)c1ccc(C(=O)Oc2ccc3c(C)cc(=O)oc3c2)cc1", "format": "biochemical, Pseudideonella sakaiensis", "from_the_text": "(§2) fluorescence, 4-mU release on IsPETase"}, "[5]": {"substrate": "COC(=O)c1ccc(C(=O)OCCOC(=O)c2ccc(C(=O)Oc3ccc4c(C)cc(=O)oc4c3)cc2)cc1", "format": "biochemical, Pseudideonella sakaiensis", "from_the_text": "as §2"}, "[6]": {"substrate": "COC(=O)c1ccc(C(=O)Oc2ccc3c(C)cc(=O)oc3c2)cc1", "format": "biochemical, Pseudideonella sakaiensis", "from_the_text": "as §2"}, "[7]": {"substrate": "CCOCCOC(=O)c1ccc(C(=O)Oc2ccc3c(C)cc(=O)oc3c2)cc1", "format": "biochemical, Thermothelomyces thermophilus", "from_the_text": "(§3) fluorescence, 4-mU release on StGE2 (glucuronoyl esterase)"}, "[8]": {"substrate": "COC(=O)c1ccc(C(=O)Oc2ccc3c(C)cc(=O)oc3c2)cc1", "format": "biochemical, Thermothelomyces thermophilus", "from_the_text": "as §3"}}}
{"protein": "LCC^ICCG (leaf-branch compost cutinase ICCG variant) (unidentified prokaryotic organism; D238C/F243I/S283C/Y127G) (protein, recombinant engineered variant ICCG, pET-22b(+), E. coli BL21, intracellular fraction, purified) QSNPYQRGPNPTRSALTADGPFSVATYTVSRLSVSGFGGGVIYYPTGTSLTFGGIAMSPGYTADASSLAWLGRRLASHGFVVLVINTNSRFDGPDSRASQLSAALNYLRTSSPSAVRARLDANRLAVAGHSMGGGGTLRIAEQNPSLKAAVPLTPWHTDKTFNTSVPVLIVGAEADTVAPVSQHAIPFYQNLPSTTPKVYVELCNASHIAPNSNNAAISVYTISWMKLWVDNDTRYRQFLCNVNDPALCDFRTNNRHCQ", "values": [{"measurement": "Km", "setting": "[1]", "value": "7.2 ± 0.7", "unit": "µM"}, {"measurement": "kcat", "setting": "[1]", "value": "5.8e-05 ± 2e-06", "unit": "s⁻¹"}, {"measurement": "Km", "setting": "[2]", "value": "21.7 ± 2.8", "unit": "µM"}, {"measurement": "kcat", "setting": "[2]", "value": "1.3e-05 ± 1e-06", "unit": "s⁻¹"}, {"measurement": "Km", "setting": "[3]", "value": "1.6 ± 0.1", "unit": "µM"}, {"measurement": "kcat", "setting": "[3]", "value": "3.4e-05 ± 1e-06", "unit": "s⁻¹"}]}
{"protein": "IsPETase (Pseudideonella sakaiensis) (protein, recombinant, pET-22b(+), E. coli BL21, intracellular fraction, purified) QTNPYARGPNPTAASLEASAGPFTVRSFTVSRPSGYGAGTVYYPTNAGGTVGAIAIVPGYTARQSSIKWWGPRLASHGFVVITIDTNSTLDQPSSRSSQQMAALRQVASLNGTSSSPIYGKVDTARMGVMGWSMGGGGSLISAANNPSLKAAAPQAPWDSSTNFSSVTVPTLIFACENDSIAPVNSSALPIYDSMSRNAKQFLEINGGSHSCANSGNSNQALIGKKGVAWMKRFMDNDTRYSTFACENPNSTRVSDFRTANCS", "values": [{"measurement": "Km", "setting": "[4]", "value": "9.3 ± 0.8", "unit": "µM"}, {"measurement": "kcat", "setting": "[4]", "value": "3.8e-05 ± 1e-06", "unit": "s⁻¹"}, {"measurement": "Km", "setting": "[5]", "value": "34.1 ± 5.5", "unit": "µM"}, {"measurement": "Km", "setting": "[6]", "value": "6.7 ± 0.6", "unit": "µM"}, {"measurement": "kcat", "setting": "[6]", "value": "5e-05 ± 2e-06", "unit": "s⁻¹"}]}
{"protein": "StGE2 (glucuronoyl esterase) (Thermothelomyces thermophilus ATCC 42464) (protein, recombinant, expressed in Komagataella phaffii (Pichia pastoris), purified) APMNHIFERQDTCSVSDNYPTVNSAKLPDPFTTASGEKVTTKDQFECRRAEINKILQQYELGEYPGPPDSVEASLSGNSITVRVTVGSKSISFSASIRKPSGAGPFPAIIGIGGASIPIPSNVATITFNNDEFGAQMGSGSRGQGKFYDLFGRDHSAGSLTAWAWGVDRLIDGLEQVGAQASGIDTKRLGVTGCSRNGKGAFITGALVDRIALTIPQESGAGGAACWRISDQQKAAGANIQTAAQIITENPWFSRNFDPHVNSITSVPQDHHLLAALIVPRGLAVFENNIDWLGPVSTTGCMAAGRLIYKAYGVPNNMGFSLVGGHNHCQFPSSQNQDLNSYINYFLLGQGSPSGVEHSDVNVNVAEWAPWGAGAPTLA", "values": [{"measurement": "Km", "setting": "[7]", "value": "4.7 ± 0.4", "unit": "µM"}, {"measurement": "Km", "setting": "[8]", "value": "0.7 ± 0.1", "unit": "µM"}]}
